The target in this series is T1, rSAMD9 158-389 (tRNase domain) (Oryctolagus cuniculus (European rabbit; …, UniProt G1U2M9 158-389).
T1 sequence: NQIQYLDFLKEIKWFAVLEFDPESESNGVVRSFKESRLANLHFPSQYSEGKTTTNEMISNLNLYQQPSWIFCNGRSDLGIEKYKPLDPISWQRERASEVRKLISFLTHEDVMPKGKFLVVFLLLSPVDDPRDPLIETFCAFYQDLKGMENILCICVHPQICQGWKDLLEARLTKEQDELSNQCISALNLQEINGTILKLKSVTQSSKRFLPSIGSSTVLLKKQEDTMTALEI
Briefly: EMSA; stable complex predominant at 2:1 protein:dsDNA; no DNA density seen in the crystal; EMSA on 0.8% native agarose gel, EtBr then Coomassie stain; buffer, salt, pH and temperature not given (as in earlier paper). The settings on record: protein: recombinant; tags: 6xHis-SUMO removed by Ulp1; chain copies: 2; blunt.

B1: 26-nt dsDNA (dsDNA)
DNA 1: TATTCAAATTAATGATTTATTCAATT
DNA 2: AATTGAATAAATCATTAATTTGAATA
As for B1, the binding result is given as “binds”.

The record behind these values is article PMC12331169, “Structural and functional studies of rabbit SAMD9 reveal a distinct tRNase module that underlies the antiviral activity”.
